Test results from patent US20040138422A1 (published 2004).
*: point of attachment. Biotin = O=C1N[C@H]2[C@H](CS[C@H]2CCCCC(=O)*)N1

Legend:
[1] = biological target: CCR4 on CCR4-transfected B300.19 mouse lymphoma cells (human) (UniProt P51679); test: cell-based or functional assay
[2] = biological target: CCR4 on CCR4-transfected B300.19 mouse lymphoma cells (human) (UniProt P51679); test: FACS, CCR4-transfected B300.19 cells, biotinylated chemokine then FITC-avidin
[3] = biological target: T1, FITC-conjugated avidin (BD Biosciences) (UniProt P02701 25-152, FITC conjugate); test: FACS; avidin binds the biotin of the receptor-bound chemokine
T1 construct: Detection reagent; also called FITC-avidin; FITC-labeled avidin
T1 sequence (P02701 25-152 limits assumed): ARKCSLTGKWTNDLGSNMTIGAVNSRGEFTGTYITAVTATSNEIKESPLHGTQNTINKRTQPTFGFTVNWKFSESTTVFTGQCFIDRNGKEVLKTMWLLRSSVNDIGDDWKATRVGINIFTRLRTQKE
From the text: After 2 repetitive washings using staining buffer, cells were fixed in PBS with 1% FCS 1% and 1% PFA before FACS analysis.

CCR4 on CCR4-transfected B300.19 mouse lymphoma cells (human), sequence (P51679 whole entry): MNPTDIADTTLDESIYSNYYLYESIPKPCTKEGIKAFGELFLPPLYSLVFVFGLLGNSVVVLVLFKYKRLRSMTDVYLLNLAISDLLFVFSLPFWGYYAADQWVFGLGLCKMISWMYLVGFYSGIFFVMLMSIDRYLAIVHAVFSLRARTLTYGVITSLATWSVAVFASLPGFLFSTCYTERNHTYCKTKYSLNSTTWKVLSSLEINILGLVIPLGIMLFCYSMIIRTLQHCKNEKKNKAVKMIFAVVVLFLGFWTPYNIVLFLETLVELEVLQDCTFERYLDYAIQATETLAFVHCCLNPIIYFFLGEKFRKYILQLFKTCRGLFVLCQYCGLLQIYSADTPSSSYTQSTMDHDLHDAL

A dose at which minimal migration is still detectable [1] of 0.1 ng/mL, a dose for optimal migration of CCR4-transfected cells [1] of 1 to 10 ng/mL and an MFI [2] of 6.6 were found for “biotinylated CCL22(K61) analogue (from UniProt O00626 25-93) (ligand)” in this work.

A dose at which minimal migration is still detectable [1] of 0.1 ng/mL, a dose for optimal migration of CCR4-transfected cells [1] of 1 to 10 ng/mL and an MFI [2] of 5.9 were found for “biotinylated CCL22(G1) analogue (from UniProt O00626 25-93) (ligand)” in this work.

A dose at which minimal migration is still detectable [1] of 0.1 ng/mL, a dose for optimal migration of CCR4-transfected cells [1] of 1 to 10 ng/mL and an MFI [2] of 6.1 were found for “biotinylated CCL22(K49) analogue (from UniProt O00626 25-93) (ligand)” in this work.

B1: biotinylated CCL22(K66) analogue (ligand)
chain: GPYGANMEDSVCCRDYVRYRLPLRVVKHFYWTSDSCPRPGVVLLTFRDKEICADPRVPWVKMILNK(Biotin)LSQ
notes: Synthetic human CCL22 with one biotin; also called biotinylated h-MDC
B1: binds [3].
